Test results reported in the supplement of paper PMC11246515.
± gives the standard deviation of the averaged measurements.

Assay: total protein half-life in vivo (active degradation + dilution); higher = more stable protein
[1] = E. coli NCM3722 delta-clpP delta-lon delta-hslV, growth: N-lim chemostat, doubling time 6 h
[2] = E. coli NCM3722 delta-clpP, growth: N-lim chemostat, doubling time 6 h
[3] = E. coli NCM3722 delta-hslV, growth: N-lim chemostat, doubling time 6 h
[4] = E. coli NCM3722 delta-lon, growth: N-lim chemostat, doubling time 6 h
[5] = E. coli NCM3722 delta-smpB, growth: N-lim chemostat, doubling time 6 h
[6] = wild type E. coli NCM3722, growth: C-lim chemostat, doubling time 3 h
[7] = wild type E. coli NCM3722, growth: C-lim chemostat, doubling time 6 h
[8] = wild type E. coli NCM3722, growth: C-lim chemostat, doubling time 12 h
[9] = wild type E. coli NCM3722, growth: N-lim chemostat, doubling time 6 h
[10] = wild type E. coli NCM3722, growth: N-lim chemostat, doubling time 12 h
[11] = wild type E. coli NCM3722, growth: P-lim chemostat, doubling time 6 h
[12] = wild type E. coli NCM3722, growth: P-lim chemostat, doubling time 12 h

Sequence | total protein half-life in vivo [1] | total protein half-life in vivo [2] | total protein half-life in vivo [3] | total protein half-life in vivo [4] | total protein half-life in vivo [5] | total protein half-life in vivo [6] | total protein half-life in vivo [7] | total protein half-life in vivo [8] | total protein half-life in vivo [9] | total protein half-life in vivo [10] | total protein half-life in vivo [11] | total protein half-life in vivo [12]
MCELLGMSANVPTDICFSFTGLVQRGGGTGPHKDGWGITFYEGKGCRTFKDPQPSFNSPIAKLVQDYPIKSCSVVAHIRQANRGEVALENTHPFTRELWGRNWTYAHNGQLTGYKSLETGNFRPVGETDSEKAFCWLLHKLTQRYPRTPGNMAAVFKYIASLADELRQKGVFNMLLSDGRYVMAYCSTNLHWITRRAPFGVATLLDQDVEIDFSSQTTPNDVVTVIATQPLTGNETWQKIMPGEWRLFCLGERVV | 6.35 ± 0.88 h | 5.84 ± 0.22 h | 5.68 ± 0.45 h | 6.32 ± 0.5 h | 5.67 ± 0.13 h | 3.37 ± 0.54 h | 6.2 ± 0.066 h | 12.6 ± 1.6 h | 5.695 ± 0.045 h | 12.2 ± 1.4 h | 5.83 ± 0.3 h | 12.5 ± 0.73 h
MFRPFLNSLMLGSLFFPFIAIAGSTVQGGVIHFYGQIVEPACDVSTQSSPVEMNCPQNGSIPGKTYSSKALMSGNVKNAQIASVKVQYLDKQKKLAVMNIEYN | – | – | – | – | – | 0.288 h | 0.225 h | – | – | – | – | –
MYIGIDLGTSGVKVILLNEQGEVVAAQTEKLTVSRPHPLWSEQDPEQWWQATDRAMKALGDQHSLQDVKALGIAGQMHGATLLDAQQRVLRPAILWNDGRCAQECTLLEARVPQSRVITGNLMMPGFTAPKLLWVQRHEPEIFRQIDKVLLPKDYLRLRMTGEFASDMSDAAGTMWLDVAKRDWSDVMLQACDLSRDQMPALYEGSEITGALLPEVAKAWGMATVPVVAGGGDNAAGAVGVGMVDANQAMLSLGTSGVYFAVSEGFLSKPESAVHSFCHALPQRWHLMSVMLSAASCLDWAAKLTGLSNVPALIAAAQQADESAEPVWFLPYLSGERTPHNNPQAKGVFFGLTHQHGPNELARAVLEGVGYALADGMDVVHACGIKPQSVTLIGGGARSEYWRQMLADISGQQLDYRTGGDVGPALGAARLAQIAANPEKSLIELLPQLPLEQSHLPDAQRYAAYQPRRETFRRLYQQLLPLMA | 5.25 ± 0.23 h | 4.96 ± 0.27 h | 5.75 ± 1.6 h | 4.82 ± 0.32 h | 4.5 ± 0.047 h | 3.52 ± 0.21 h | 5.87 ± 0.13 h | 9.67 ± 1.8 h | 4.57 ± 0.12 h | 8 ± 1.8 h | 6.62 ± 0.53 h | 12.5 ± 0.58 h
MKKLILIAIMASGLVACAQSTAPQEDSRLKEAYSACINTAQGSPEKIEACQSVLNVLKKEKQHQQFADQESVRVLDYQQCLRATQTGNDQAVKADCDKVWQEIRSNNK | – | – | – | – | 5.85 h | – | – | 9.68 ± 2.6 h | – | > 16 h | – | –
MLNNAMSVVILAAGKGTRMYSDLPKVLHTLAGKAMVQHVIDAANELGAAHVHLVYGHGGDLLKQALKDDNLNWVLQAEQLGTGHAMQQAAPFFADDEDILMLYGDVPLISVETLQRLRDAKPQGGIGLLTVKLDDPTGYGRITRENGKVTGIVEHKDATDEQRQIQEINTGILIANGADMKRWLAKLTNNNAQGEYYITDIIALAYQEGREIVAVHPQRLSEVEGVNNRLQLSRLERVYQSEQAEKLLLAGVMLRDPARFDLRGTLTHGRDVEIDTNVIIEGNVTLGHRVKIGTGCVIKNSVIGDDCEISPYTVVEDANLAAACTIGPFARLRPGAELLEGAHVGNFVEMKKARLGKGSKAGHLTYLGDAEIGDNVNIGAGTITCNYDGANKFKTIIGDDVFVGSDTQLVAPVTVGKGATIAAGTTVTRNVGENALAISRVPQTQKEGWRRPVKKK [P0ACC7] | 6.48 ± 0.94 h | 5.96 ± 1.1 h | 5.08 ± 0.11 h | 5.46 ± 0.28 h | 4.93 ± 0.12 h | 2.92 ± 0.096 h | 5.9 ± 0.48 h | 11.8 ± 0.66 h | 5.122 ± 0.044 h | 9.31 ± 0.57 h | 5.96 ± 0.37 h | 12.9 ± 0.34 h
MKAARQQAIVDLLLNHTSLTTEALSEQLKVSKETIRRDLNELQTQGKILRNHGRAKYIHRQNQDSGDPFHIRLKSHYAHKADIAREALAWIEEGMVIALDASSTCWYLARQLPDINIQVFTNSHPICHELGKRERIQLISSGGTLERKYGCYVNPSLISQLKSLEIDLFIFSCEGIDSSGALWDSNAINADYKSMLLKRAAQSLLLIDKSKFNRSGEARIGHLDEVTHIISDERQVATSLVTA [P0ACK8] | 4.82 ± 0.058 h | 2.74 ± 0.14 h | – | – | 0.618 h | 0.695 ± 0.079 h | 1.09 h | 1.36 ± 0.31 h | 1.3 h | 0.218 h | – | –
MSQPITRENFDEWMIPVYAPAPFIPVRGEGSRLWDQQGKEYIDFAGGIAVNALGHAHPELREALNEQASKFWHTGNGYTNEPVLRLAKKLIDATFADRVFFCNSGAEANEAALKLARKFAHDRYGSHKSGIVAFKNAFHGRTLFTVSAGGQPAYSQDFAPLPADIRHAAYNDINSASALIDDSTCAVIVEPIQGEGGVVPASNAFLQGLRELCNRHNALLIFDEVQTGVGRTGELYAYMHYGVTPDLLTTAKALGGGFPVGALLATEECARVMTVGTHGTTYGGNPLASAVAGKVLELINTPEMLNGVKQRHDWFVERLNTINHRYGLFSEVRGLGLLIGCVLNADYAGQAKQISQEAAKAGVMVLIAGGNVVRFAPALNVSEEEVTTGLDRFAAACEHFVSRGSS | 3.59 ± 0.43 h | 3.17 ± 0.87 h | 2.47 ± 0.25 h | 2.97 ± 0.5 h | 2.79 ± 0.15 h | 3.106 ± 0.012 h | 4.44 ± 0.17 h | 7.4513 ± 0.0042 h | 2.67 ± 0.12 h | 3.532 ± 0.018 h | 5.09 ± 0.52 h | 9.766 ± 0.073 h
